Assay results as given in US20090098106.
Changes are numbered by the printed parent chain.

Assays:
[1] = target: T1, HC8 (α7) subunit of the human 20S proteasome, P25788
T1 chain: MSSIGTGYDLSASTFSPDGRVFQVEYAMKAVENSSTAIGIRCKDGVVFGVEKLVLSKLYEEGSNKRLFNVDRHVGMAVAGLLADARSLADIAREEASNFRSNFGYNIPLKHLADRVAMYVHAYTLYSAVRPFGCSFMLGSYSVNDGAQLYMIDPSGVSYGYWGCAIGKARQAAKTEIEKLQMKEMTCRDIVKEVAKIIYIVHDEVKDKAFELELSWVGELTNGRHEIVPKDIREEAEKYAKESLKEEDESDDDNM

[2] = target: T2, HC8 SS 243,250AA mutant, P25788
T2 chain: T1 chain with S243A, S250A

B1: NF-κB inducing kinase (NIK), human, full length (protein)
chain: MAVMEMACPGAPGSAVGQQKELPKPKEKTPPLGKKQSSVYKLEAVEKSPVFCGKWEILNDVITKGTAKEGSEAGPAAISIIAQAECENSQEFSPTFSERIFIAGSKQYSQSESLDQIPNNVAHATEGKMARVCWKGKRRSKARKKRKKKSSKSLAHAGVALAKPLPRTPEQESCTIPVQEDESPLGAPYVRNTPQFTKPLKEPGLGQLCFKQLGEGLRPALPRSELHKLISPLQCLNHVWKLHHPQDGGPLPLPTHPFPYSRLPHPFPFHPLQPWKPHPLESFLGKLACVDSQKPLPDPHLSKLACVDSPKPLPGPHLEPSCLSRGAHEKFSVEEYLVHALQGSVSSSQAHSLTSLAKTWAARGSRSREPSPKTEDNEGVLLTEKLKPVDYEYREEVHWATHQLRLGRGSFGEVHRMEDKQTGFQCAVKKVRLEVFRAEELMACAGLTSPRIVPLYGAVREGPWVNIFMELLEGGSLGQLVKEQGCLPEDRALYYLGQALEGLEYLHSRRILHGDVKADNVLLSSDGSHAALCDFGHAVCLQPDGLGKSLLTGDYIPGTETHMAPEVVLGRSCDAKVDVWSSCCMMLHMLNGCHPWTQFFRGPLCLKIASEPPPVREIPPSCAPLTAQAIQEGLRKEPIHRVSAAELGGKVNRALQQVGGLKSPWRGEYKEPRHPPPNQANYHQTLHAQPRELSPRAPGPRPAEETTGRAPKLQPPLPPEPPEPNKSPPLTLSKEESGMWEPLPLSSLEPAPARNPSSPERKATVPEQELQQLEIELFLNSLSQPFSLEEQEQILSCLSIDSLSLSDDSEKNPSKASQSSRDTLSSGVHSWSSQAEARSSSWNMVLARGRPTDTPSYFNGVKVQIQSLNGEHLHIREFHRVKVGDIATGISSQIPAAAFSLVTKDGQPVRYDMEVPDSGIDLQCTLAPDGSFAWSWRVKHGQLENRP
B1 was tested, and the “in vitro kinase assay (phosphorylation of HC8 in the immunoprecipitate)” value [1] was “HC8 was found to be a substrate for NIK phosphorylation in an in vitro kinase assay” and the “in vitro kinase assay (phosphorylation of HC8 in the immunoprecipitate)” value [2] was “Replacement of two serine residues on HC8 (amino acids 243 and 250) by alanine completely abolished the NIK-induced phosphorylation of HC8”.
